Experimental findings from US20250388669A1 (published 2025) are described below.

The target of one assay is CD40 (UniProt P25942 21-193, limits assumed). The assay can be described thus: FCM or ELISA, graded. (ELISA stands for enzyme-linked immunosorbent assay.)
Another assay addresses T1, B7H3 (UniProt Q5ZPR3 29-466, limits assumed).
T1 sequence (looked up): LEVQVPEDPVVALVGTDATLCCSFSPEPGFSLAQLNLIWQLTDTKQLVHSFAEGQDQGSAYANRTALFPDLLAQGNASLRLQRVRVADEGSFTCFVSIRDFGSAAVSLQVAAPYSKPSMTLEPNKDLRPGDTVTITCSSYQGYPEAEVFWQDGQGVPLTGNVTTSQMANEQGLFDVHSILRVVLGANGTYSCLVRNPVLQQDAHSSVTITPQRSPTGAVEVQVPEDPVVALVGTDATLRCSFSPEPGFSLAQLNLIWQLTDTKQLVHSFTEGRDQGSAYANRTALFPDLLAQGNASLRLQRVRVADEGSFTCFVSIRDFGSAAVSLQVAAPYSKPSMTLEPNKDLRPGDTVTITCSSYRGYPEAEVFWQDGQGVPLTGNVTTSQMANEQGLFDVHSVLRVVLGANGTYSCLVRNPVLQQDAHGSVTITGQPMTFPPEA
As to the kind of experiment: FCM or ELISA, graded.

CD40, sequence (P25942 21-193 limits assumed): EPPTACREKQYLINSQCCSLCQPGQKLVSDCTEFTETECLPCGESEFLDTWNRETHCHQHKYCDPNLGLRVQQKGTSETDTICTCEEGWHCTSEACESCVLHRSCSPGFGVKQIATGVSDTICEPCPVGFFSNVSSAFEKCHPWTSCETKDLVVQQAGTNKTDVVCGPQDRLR

B1: Ly2428 (bispecific antibody)
heavy 1: QVQLVQSGAEVKKPGASVKVSCKASGYTFTSYVMHWVRQKPGQGLEWIGYINPYNEGTESTDKFKGRATMTSDKSTSTVYMELSSLRSEDTAVYYCASIYYGYEGTYFGVWGQGTLVTVSSASTKGPSVFPLAPSSKSTSGGTAALGCLVKDYFPEPVTVSWNSGALTSGVHTFPAVLQSSGLYSLSSVVTVPSSSLGTQTYICNVNHKPSNTKVDKKVEPKSCGGGGSGGGGSGGGGSGGGGSEVQLVESGGGLVQPGGSLRLSCAASGFTFTNYGLHWVRQAPGKGLEWVSSISPSGGVTYYRDSVKGRFTISRDNSKNTLYLQMNSLRAEDTAVYYCAKPFLGWGGANWIAHWGQGTLVTVSSGGGGSDKTHTCPPCPAPEAAGPSVFLFPPKPKDTLMISRTPEVTCVVVDVSHEDPEVKFNWYVDGVEVHNAKTKPREEQYNSTYRVVSVLTVLHQDWLNGKEYKCKVSNKALPAPIEKTISKAKGQPREPQVYTLPPSREEMTKNQVSLWCLVKGFYPSDIAVEWESNGQPENNYKTTPPVLDSDGSFFLYSKLTVDKSRWQQGNVFSCSVMHEALHNHYTQKSLSLSPG
heavy 2: QVQLVQSGAEVKKPGASVKVSCKASGYTFTSYVMHWVRQKPGQGLEWIGYINPYNEGTESTDKFKGRATMTSDKSTSTVYMELSSLRSEDTAVYYCASIYYGYEGTYFGVWGQGTLVTVSSASTKGPSVFPLAPSSKSTSGGTAALGCLVKDYFPEPVTVSWNSGALTSGVHTFPAVLQSSGLYSLSSVVTVPSSSLGTQTYICNVNHKPSNTKVDKKVEPKSCGGGGSGGGGSGGGGSGGGGSDIQMTQSPSSLSASVGDRVTITCLASEDISNDLAWYQQKPGKAPKLLIYFVDRLLDGVPSRFSGSGSGTDFTLTISSLQPEDFATYYCQQSYKYPPTFGQGTKLEIKGGGGSDKTHTCPPCPAPEAAGPSVFLFPPKPKDTLMISRTPEVTCVVVDVSHEDPEVKFNWYVDGVEVHNAKTKPREEQYNSTYRVVSVLTVLHQDWLNGKEYKCKVSNKALPAPIEKTISKAKGQPREPQVYTLPPSREEMTKNQVSLSCAVKGFYPSDIAVEWESNGQPENNYKTTPPVLDSDGSFFLVSKLTVDKSRWQQGNVFSCSVMHEALHNRFTQKSLSLSPG
light: EIVLTQSPATLSLSPGERATLSCRASSSVSYMHWYQQKPGQAPRPWIYATSNLASGIPARFSGSRSGTDYTLTISSLEPEDFAVYYCQQWSSNTLTFGGGTKVEIKRTVAAPSVFIFPPSDEQLKSGTASVVCLLNNFYPREAKVQWKVDNALQSGNSQESVTEQDSKDSTYSLSSTLTLSKADYEKHKVYACEVTHQGLSSPVTKSFNRGEC
notes: B7H3 Fabs x central CD40 Fv (TM559)
For the molecule B1, the binding result with CD40 and in the assay with B7H3 was “binds” each time.
